Changes are numbered by the printed parent chain. Numbers in names are those of the source.
B1: XPA23 Fab, heavy chain T58K (Fab, V domains shown)
VH: EVQLLESGGGLVQPGGSLRLSCAASGFTFSKYFMFWVRQAPGKGLEWVSVISPSGGMKRYADSVKGRFTISRDNSKNTLYLQMNSLRAEDTAVYYCARVGYGGNSDYWGQGTLVTVSS
VL: DIQMTQSPSSVSASVGDRLTIICRASQDINRWLAWYQQTPGNAPKLLIHSATSLQSGVPSRFSGSGSGTDFTLTINSLQPEDFATYYCQQADSFPLTFGGGTKVEIK
B2: XPA23 Fab, heavy chain T58W (Fab, V domains shown)
VH: B1 VH with K58W
VL: B1 VL
B3: XPA23 Fab, heavy chain Y32Q (Fab, V domains shown)
VH: B1 VH with Y32Q, K58T
VL: B1 VL
B4: XPA23 Fab, heavy chain V50E (Fab, V domains shown)
VH: B1 VH with V50E, K58T
VL: B1 VL
B5: XPA23 Fab, heavy chain Y32H (Fab, V domains shown)
VH: B1 VH with Y32H, K58T
VL: B1 VL
B6: XPA23 Fab, heavy chain V99N (Fab, V domains shown)
VH: B1 VH with K58T, V99N
VL: B1 VL
B7: XPA23 Fab, heavy chain Y101N (Fab, V domains shown)
VH: B1 VH with K58T, Y101N
VL: B1 VL
B8: XPA23 Fab, heavy chain Y101Q (Fab, V domains shown)
VH: B1 VH with K58T, Y101Q
VL: B1 VL
B9: XPA23 Fab, heavy chain T58Q (Fab, V domains shown)
VH: B1 VH with K58Q
VL: B1 VL
B10: XPA23 Fab, heavy chain V99E (Fab, V domains shown)
VH: B1 VH with K58T, V99E
VL: B1 VL
B11: XPA23 Fab, heavy chain Y101H (Fab, V domains shown)
VH: B1 VH with K58T, Y101H
VL: B1 VL
B12: XPA23 Fab, heavy chain Y101E (Fab, V domains shown)
VH: B1 VH with K58T, Y101E
VL: B1 VL
B13: XPA23 Fab, heavy chain V50F (Fab, V domains shown)
VH: B1 VH with V50F, K58T
VL: B1 VL
B14: XPA23 Fab, heavy chain V50H (Fab, V domains shown)
VH: B1 VH with V50H, K58T
VL: B1 VL
B15: XPA23 Fab, heavy chain Y32D (Fab, V domains shown)
VH: B1 VH with Y32D, K58T
VL: B1 VL
B16: XPA23 Fab, heavy chain Y101D (Fab, V domains shown)
VH: B1 VH with K58T, Y101D
VL: B1 VL
B17: XPA23 Fab, heavy chain V50Y (Fab, V domains shown)
VH: B1 VH with V50Y, K58T
VL: B1 VL
B18: XPA23 Fab, heavy chain T58R (Fab, V domains shown)
VH: B1 VH with K58R
VL: B1 VL
B19: XPA23 Fab, heavy chain V99S (Fab, V domains shown)
VH: B1 VH with K58T, V99S
VL: B1 VL
B20: XPA23 Fab, heavy chain V50D (Fab, V domains shown)
VH: B1 VH with V50D, K58T
VL: B1 VL
B21: XPA23 Fab, heavy chain Y101R (Fab, V domains shown)
VH: B1 VH with K58T, Y101R
VL: B1 VL
B22: XPA23 Fab, heavy chain Y32S (Fab, V domains shown)
VH: B1 VH with Y32S, K58T
VL: B1 VL
B23: XPA23 Fab, heavy chain Y107E (Fab, V domains shown)
VH: B1 VH with K58T, Y107E
VL: B1 VL
B24: XPA23 Fab, heavy chain Y101W (Fab, V domains shown)
VH: B1 VH with K58T, Y101W
VL: B1 VL
B25: XPA23 Fab, heavy chain T58N (Fab, V domains shown)
VH: B1 VH with K58N
VL: B1 VL
B26: XPA23 Fab, heavy chain V50K (Fab, V domains shown)
VH: B1 VH with V50K, K58T
VL: B1 VL
B27: XPA23 Fab, heavy chain T58Y (Fab, V domains shown)
VH: B1 VH with K58Y
VL: B1 VL
B28: XPA23 Fab, heavy chain T58S (Fab, V domains shown)
VH: B1 VH with K58S
VL: B1 VL
B29: XPA23 Fab, heavy chain Y32N (Fab, V domains shown)
VH: B1 VH with Y32N, K58T
VL: B1 VL
B30: XPA23 Fab, heavy chain Y32F (Fab, V domains shown)
VH: B1 VH with Y32F, K58T
VL: B1 VL
B31: XPA23 Fab, heavy chain V99F (Fab, V domains shown)
VH: B1 VH with K58T, V99F
VL: B1 VL
B32: XPA23 Fab, heavy chain V50Q (Fab, V domains shown)
VH: B1 VH with V50Q, K58T
VL: B1 VL
B33: XPA23 Fab, heavy chain Y107D (Fab, V domains shown)
VH: B1 VH with K58T, Y107D
VL: B1 VL
B34: XPA23 Fab, heavy chain V50S (Fab, V domains shown)
VH: B1 VH with V50S, K58T
VL: B1 VL
B35: XPA23 Fab, heavy chain V50W (Fab, V domains shown)
VH: B1 VH with V50W, K58T
VL: B1 VL
B36: XPA23 Fab, heavy chain Y107K (Fab, V domains shown)
VH: B1 VH with K58T, Y107K
VL: B1 VL
B37: XPA23 Fab, heavy chain V99K (Fab, V domains shown)
VH: B1 VH with K58T, V99K
VL: B1 VL
B38: XPA23 Fab, heavy chain Y101F (Fab, V domains shown)
VH: B1 VH with K58T, Y101F
VL: B1 VL
B39: XPA23 Fab, heavy chain Y107F (Fab, V domains shown)
VH: B1 VH with K58T, Y107F
VL: B1 VL
B40: XPA23 Fab, heavy chain V99Q (Fab, V domains shown)
VH: B1 VH with K58T, V99Q
VL: B1 VL
B41: XPA23 Fab, heavy chain V50R (Fab, V domains shown)
VH: B1 VH with V50R, K58T
VL: B1 VL
B42: XPA23 Fab, heavy chain Y32E (Fab, V domains shown)
VH: B1 VH with Y32E, K58T
VL: B1 VL
B43: XPA23 Fab, heavy chain Y107H (Fab, V domains shown)
VH: B1 VH with K58T, Y107H
VL: B1 VL

Biological target: T1, IL-1beta (UniProt P01584 117-269)
T1 construct: also called IL-1β
Experiment: Biacore

Row | Binder | binding result | fold difference in affinity vs parental [fold]
1 | B1 | no binding | 
2 | B2 |  | 0.93
3 | B3 | no binding | 
4 | B4 | no binding | 
5 | B5 |  | 0.62
6 | B6 | no binding | 
7 | B7 |  | 0.06
8 | B8 |  | 0.06
9 | B9 | no binding | 
10 | B10 | no binding | 
11 | B11 |  | 0.04
12 | B12 |  | 0.03
13 | B13 | no binding | 
14 | B14 | no binding | 
15 | B15 |  | 0.68
16 | B16 | no binding | 
17 | B17 | no binding | 
18 | B18 |  | 1.14
19 | B19 | no binding | 
20 | B20 | no binding | 
21 | B21 |  | 0.85
22 | B22 |  | 1.33

Row | Binder | binding result | fold difference in affinity vs parental [fold]
23 | B23 |  | 0.9
24 | B24 |  | 0.81
25 | B25 |  | 0.9
26 | B26 | no binding | 
27 | B27 |  | 1.01
28 | B28 |  | 0.82
29 | B29 |  | 0.04
30 | B30 |  | 0.75
31 | B31 |  | 0.03
32 | B32 | no binding | 
33 | B33 |  | 0.85
34 | B34 | no binding | 
35 | B35 | no binding | 
36 | B36 |  | 0.82
37 | B37 | no binding | 
38 | B38 |  | 0.85
39 | B39 |  | 0.9
40 | B40 | no binding | 
41 | B41 | no binding | 
42 | B42 |  | 0.12
43 | B43 | no binding | 

Source: patent publication US20110118131A1 (published 2011)
